Measured values as given in PMC9520691 (ACS Omega, 2022).
Changes are numbered by the printed parent chain. Names and notes keep the numbering of the source. Values joined by “and” are separate entries in the source; they are usually repeats but may differ in a detail not shown here. Equal entries are not always repeated.

B1: full length ODC wildtype (enzyme, human, UniProt P11926 1-461, looked up)
chain: MNNFGNEEFDCHFLDEGFTAKDILDQKINEVSSSDDKDAFYVADLGDILKKHLRWLKALPRVTPFYAVKCNDSKAIVKTLAATGTGFDCASKTEIQLVQSLGVPPERIIYANPCKQVSQIKYAANNGVQMMTFDSEVELMKVARAHPKAKLVLRIATDDSKAVCRLSVKFGATLRTSRLLLERAKELNIDVVGVSFHVGSGCTDPETFVQAISDARCVFDMGAEVGFSMYLLDIGGGFPGSEDVKLKFEEITGVINPALDKYFPSDSGVRIIAEPGRYYVASAFTLAVNIIAKKIVLKEQTGSDDEDESSEQTFMYYVNDGVYGSFNCILYDHAHVKPLLQKRPKPDEKYYSSSIWGPTCDGLDRIVERCDLPEMHVGDWMLFENMGAYTVAAASTFNGFQRPTIYYVMSGPAWQLMQQFQNPDFPPEVEEQDASTLPVSCAWESGMKRHRAACASASINV
B2: full length ODC G84R (enzyme, human, UniProt P11926 1-461, looked up)
chain: B1 chain with G84R

Molecular target: the molecule itself
Test: AUC

Protein | stoichiometry N
B1 | 2
B2 | 2 and 3
